{"source": "patent US20230183233A1", "about": "“Bicyclic Pyridin-2-one and pyrimidin-4-one Derivatives Useful As a Factor XIa Inhibitors” (Janssen Pharmaceutica NV, priority 2021, published 2023)", "tested_on": "Cc1cc(=O)oc2cc(NC(=O)[C@H](CCCNC(=N)N)NC(=O)[C@@H]3CCCN3C(=O)CNC(=O)OCc3ccccc3)ccc12", "test": "Kallikrein inhibition assay utilizing a quenched AMC peptide substrate (FLINT, kinetic read)", "format": "biochemical, human", "settings": "other: peptide substrate for kallikrein; titration data fit to the Michaelis-Menten equation; pH 7.5", "data": [{"substance": "human plasma kallikrein (Homo sapiens)", "values": [{"measurement": "Km", "result": 40, "unit": "µM"}, {"measurement": "kcat", "result": 0.76, "unit": "s⁻¹"}, {"measurement": "kcat/Km", "result": 18932, "unit": "M-is-1"}]}]}
